The text below walks through data of US20100260668A1 (published 2010).

In assay [1] the target is T1, ErbB3 (ErbB3 ECD/FC Chimera-His tag) (UniProt P21860 20-643, limits assumed).
T1 construct: extracellular domain; Bought reagent
Kind of assay: Direct Bind ELISA, antigen on plate. (ELISA stands for enzyme-linked immunosorbent assay.)
Protocol: (§1) Enzyme Linked Immunosorbent Assays to screen for antibodies that bind a desired target antigen were performed as follows. […] Plates were washed four times with PBS containing 0.02% Tween 20. Plates were blocked by the addition of 300 μL/well blocking solution (non-fat dry milk powder, various retail suppliers, diluted to 2% in PBS) for ½ hour at room temperature. Plates were washed four times after blocking with PBS containing 0.02% Tween 20.
(§2) Alternatively, one hundred microliters per well of 10 μg/ml of Histidine (His) tagged desired target antigen (R&D Systems, Minneapolis, Minn.) was added to ELISA plates coated with monoclonal mouse anti-polyHistidine antibody as described above and incubated for 1 hour at room temperature. Wells were washed four times with PBS containing 0.02% Tween 20.
(§3) One hundred microliters of antibody or DVD-Ig preparations diluted in blocking solution as described above was added to the desired target antigen plate or desired target antigen/FC fusion plate or the anti-polyHistidine antibody/His tagged desired target antigen plate prepared as described above and incubated for 1 hour at room temperature. Wells are washed four times with PBS containing 0.02% Tween 20.

Assay [2] deals with T2, DLL4 (DLL4 ECD/His tag) (UniProt Q9NR61 27-529, limits assumed).
T2 construct: extracellular domain; Bought reagent
The experiment in a line: Direct Bind ELISA, antigen on plate; C-terminal VD.
Protocol: as §1, §2, §3

In the next assay the target is T3, HGF (HGF-His tag) (UniProt P14210 32-728).
T3 construct: Bought reagent
Kind of assay: Direct Bind ELISA, antigen on plate; N-terminal VD.

Assay [3] deals with T4, PlGF (Placental GF) (UniProt P49763-2 21-149, limits assumed).
T4 construct: Bought reagent
T4 sequence (looked up): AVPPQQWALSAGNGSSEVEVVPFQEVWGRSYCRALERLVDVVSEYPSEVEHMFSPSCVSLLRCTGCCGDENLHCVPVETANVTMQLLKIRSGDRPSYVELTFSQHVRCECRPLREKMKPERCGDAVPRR
The experiment in a line: Direct Bind ELISA, antigen on plate; N-terminal VD.
Protocol: as §1, §2, §3

Assay [4] concerns the target T5, RON (MSP Receptor ECD-His tag) (UniProt Q04912 25-957, limits assumed).
T5 construct: extracellular domain; Bought reagent
Kind of assay: Direct Bind ELISA, antigen on plate; C-terminal VD.
Protocol: as §1, §2, §3

Assay [5] deals with T4, PlGF (Placental GF). The experiment in a line: Direct Bind ELISA, antigen on plate; C-terminal VD.
Protocol: as §1, §2, §3
Assay [6] deals with T2, DLL4 (DLL4 ECD/His tag). Kind of assay: Direct Bind ELISA, antigen on plate; N-terminal VD.
Protocol: as §1, §2, §3

T3 sequence (P14210 32-728 limits assumed): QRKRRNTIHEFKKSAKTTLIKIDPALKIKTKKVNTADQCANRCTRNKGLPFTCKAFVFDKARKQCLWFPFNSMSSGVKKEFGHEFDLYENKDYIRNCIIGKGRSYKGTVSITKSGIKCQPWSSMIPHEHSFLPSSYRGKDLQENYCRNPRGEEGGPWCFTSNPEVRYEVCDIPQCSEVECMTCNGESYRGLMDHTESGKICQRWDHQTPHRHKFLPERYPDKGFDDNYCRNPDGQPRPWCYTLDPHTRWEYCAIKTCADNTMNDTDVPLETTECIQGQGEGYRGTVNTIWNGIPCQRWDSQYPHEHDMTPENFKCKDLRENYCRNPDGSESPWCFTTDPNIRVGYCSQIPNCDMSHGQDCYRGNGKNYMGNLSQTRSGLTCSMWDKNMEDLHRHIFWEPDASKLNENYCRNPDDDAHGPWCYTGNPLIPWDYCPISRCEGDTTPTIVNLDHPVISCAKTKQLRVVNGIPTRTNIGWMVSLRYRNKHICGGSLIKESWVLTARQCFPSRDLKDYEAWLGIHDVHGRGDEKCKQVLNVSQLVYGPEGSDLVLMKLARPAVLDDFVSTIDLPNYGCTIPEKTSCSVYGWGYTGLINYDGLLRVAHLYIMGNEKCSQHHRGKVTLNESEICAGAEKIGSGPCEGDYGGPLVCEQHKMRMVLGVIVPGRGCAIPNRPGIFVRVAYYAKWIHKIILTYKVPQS
Protocol for HGF (HGF-His tag): as §1, §2, §3

B1: AB063 (anti-ErbB3 (seq. 2) parent antibody) (antibody, IgG1, V domains shown)
VH: EVQLVESGGGLVQPGGSLRLSCAASGFTFSIYSMNWVRQAPGKGLEWVSYISSSSSTIYYADSVKGRFTISRDNAKNSLYLQMNSLRDEDTAVYYCARDRGDFDAFDIWGQGTMVTVSS
VL: DIQMTQSPSSLSASVGDRVTITCQASQDITNYLNWYQQKPGKAPKLLIYDASNLETGVPSRFSGSGSGTDFTFTISSLQPEDIATYNCQQCENFPITFGQGTRLEIKR
notes: HC vector V1 (wild-type hIgG1 constant), LC vector V2 (kappa constant); also called AB063VH; AB063VL
In general, EC50 refers to the concentration that produces a half-maximal response. Low readings indicate higher potency in that assay, high ones lower potency in that assay. Regarding B1, the EC50 in assay [1] turned out to be 0.28 nM.

B2: AB062 (anti-ErbB3 (seq. 1) parent antibody) (antibody, IgG1, V domains shown)
VH: QVQLQQWGAGLLKPSETLSLTCAVYGGSFSGYYWSWIRQPPGKGLEWIGEINHSGSTNYNPSLKSRVTISVETSKNQFSLKLSSVTAADTAVYYCARDKWTWYFDLWGRGTLVTVSS
VL: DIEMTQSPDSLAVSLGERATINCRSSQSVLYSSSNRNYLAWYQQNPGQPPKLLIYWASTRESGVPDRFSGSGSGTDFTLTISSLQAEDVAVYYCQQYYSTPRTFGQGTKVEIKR
notes: HC vector V1 (wild-type hIgG1 constant), LC vector V2 (kappa constant); also called AB062VH; AB062VL
In assay [1], B2 registered an EC50 of 1.93 nM.

B3: DVD043 (VEGF (seq. 1) and DLL4 (seq. 1) DVD-Ig) (bispecific antibody, IgG1)
VH: EVQLVESGGGLVQPGGSLRLSCAASGYTFTNYGMNWVRQAPGKGLEWVGWINTYTGEPTYAADFKRRFTFSLDTSKSTAYLQMNSLRAEDTAVYYCAKYPHYYGSSHWYFDVWGQGTLVTVSSASTKGPEVQLVESGGGLVQPGGSLRLSCAASGFTFTDNWISWVRQAPGKGLEWVGYISPNSGFTYYADSVKGRFTISADTSKNTAYLQMNSLRAEDTAVYYCARDNFGGYFDYWGQGTLVTVSS
VL: DIQMTQSPSSLSASVGDRVTITCSASQDISNYLNWYQQKPGKAPKVLIYFTSSLHSGVPSRFSGSGSGTDFTLTISSLQPEDFATYYCQQYSTVPWTFGQGTKVEIKRTVAAPDIQMTQSPSSLSASVGDRVTITCRASQDVSTAVAWYQQKPGKAPKLLIYSASFLYSGVPSRFSGSGSGTDFTLTISSLQPEDFATTYYCQQSYTGTVTFGQGTKVEIKR
notes: HC vector V1 (wild-type hIgG1 constant), LC vector V2 (kappa constant); also called DVD043H; DVD043L
In turn, B3 showed an EC50 with DLL4 (DLL4 ECD/His tag) [2] of 2.12 nM.

B4: DVD046 (HGF (seq. 1) and VEGF (seq. 1) DVD-Ig) (bispecific antibody, IgG1)
VH: QVQLVESGGGLVKPGGSLRLSCAASGFTFSDYYMSWIRQAPGKGLEWVSYISSSGSTIYYADSVKGRFTISRDNAKNSLYLQMNSLRAEDTAVYYCARDEYNSGWYVLFDYWGQGTLVTVSSASTKGPEVQLVESGGGLVQPGGSLRLSCAASGYTFTNYGMNWVRQAPGKGLEWVGWINTYTGEPTYAADFKRRFTFSLDTSKSTAYLQMNSLRAEDTAVYYCAKYPHYYGSSHWYFDVWGQGTLVTVSS
VL: DIQMTQSPSSVSASVGDRVTITCRASQGISSWLAWYQQKPGKAPNLLIYEASSLQSGVPSRFGGSGSGTDFTLTISSLQPEDFATYYCQQANGFPWTFGQGTKVEIKRTVAAPDIQMTQSPSSLSASVGDRVTITCSASQDISNYLNWYQQKPGKAPKVLIYFTSSLHSGVPSRFSGSGSGTDFTLTISSLQPEDFATYYCQQYSTVPWTFGQGTKVEIKR
notes: HC vector V1 (wild-type hIgG1 constant), LC vector V2 (kappa constant); also called DVD046L
Turning to B4, in the assay with HGF (HGF-His tag), a half-maximal effect (EC50) was put at 0.5 nM.

B5: DVD260 (PLGF (seq. 1) and VEGF (seq. 1) DVD-Ig) (bispecific antibody, IgG1)
VH: QVQLQQSGAELVKPGASVKISCKASGYTFTDYYINWVKLAPGQGLEWIGWIYPGSGNTKYNEKFKGKATLTIDTSSSTAYMQLSSLTSEDTAVYFCVRDSPFFDYWGQGTLLTVSSASTKGPEVQLVESGGGLVQPGGSLRLSCAASGYTFTNYGMNWVRQAPGKGLEWVGWINTYTGEPTYAADFKRRFTFSLDTSKSTAYLQMNSLRAEDTAVYYCAKYPHYYGSSHWYFDVWGQGTLVTVSS
VL: DIVLTQSPDSLAVSLGERVTMNCKSSQSLLNSGMRKSFLAWYQQKPGQSPKLLIYWASTRESGVPDRFTGSGSGTDFTLTISSVQAEDVAVYYCKQSYHLFTFGSGTKLEIKRTVAAPDIQMTQSPSSLSASVGDRVTITCSASQDISNYLNWYQQKPGKAPKVLIYFTSSLHSGVPSRFSGSGSGTDFTLTISSLQPEDFATYYCQQYSTVPWTFGQGTKVEIKR
notes: HC vector V1 (wild-type hIgG1 constant), LC vector V2 (kappa constant); also called VD260H; VD260L
In the assay with PlGF (Placental GF) [3], B5 came in with an EC50 of 0.12 nM.

B6: DVD034 (HGF (seq. 1) and RON (seq. 1) DVD-Ig) (bispecific antibody, IgG1)
VH: QVQLVESGGGLVKPGGSLRLSCAASGFTFSDYYMSWIRQAPGKGLEWVSYISSSGSTIYYADSVKGRFTISRDNAKNSLYLQMNSLRAEDTAVYYCARDEYNSGWYVLFDYWGQGTLVTVSSASTKGPEVQLVQSGGGLVKPGGSLRLSCAASGFTFSSYAMHWVRQAPGKGLEWVAVISYDGSNKYYADSVKGRFTISRDNSKNTLYLQMNSLRAEDTAVYYCARFSGWPNNYYYYGMDVWGQGTTVTVSS
VL: DIQMTQSPSSVSASVGDRVTITCRASQGISSWLAWYQQKPGKAPNLLIYEASSLQSGVPSRFGGSGSGTDFTLTISSLQPEDFATYYCQQANGFPWTFGQGTKVEIKRTVAAPDVVMTQSPLSLPVTPGEPASISCRSSQSLLHSNGFNYVDWYLQKPGQSPHLLIYFGSYRASGVPDRFSGSGSGTDFTLKISRVEAEDVGVYYCMQALQTPPWTFGQGTKVEIRR
notes: Outer AB012, inner AB005; HC vector V1 (wild-type hIgG1 constant), LC vector V2 (kappa constant); also called DVD034L
Take B6: the EC50 in assay [4] was found to be 116 nM; with HGF (HGF-His tag) it was 0.27 nM.

B7: DVD259 (VEGF (seq. 1) and PLGF (seq. 1) DVD-Ig) (bispecific antibody, IgG1)
VH: EVQLVESGGGLVQPGGSLRLSCAASGYTFTNYGMNWVRQAPGKGLEWVGWINTYTGEPTYAADFKRRFTFSLDTSKSTAYLQMNSLRAEDTAVYYCAKYPHYYGSSHWYFDVWGQGTLVTVSSASTKGPQVQLQQSGAELVKPGASVKISCKASGYTFTDYYINWVKLAPGQGLEWIGWIYPGSGNTKYNEKFKGKATLTIDTSSSTAYMQLSSLTSEDTAVYFCVRDSPFFDYWGQGTLLTVSS
VL: DIQMTQSPSSLSASVGDRVTITCSASQDISNYLNWYQQKPGKAPKVLIYFTSSLHSGVPSRFSGSGSGTDFTLTISSLQPEDFATYYCQQYSTVPWTFGQGTKVEIKRTVAAPDIVLTQSPDSLAVSLGERVTMNCKSSQSLLNSGMRKSFLAWYQQKPGQSPKLLIYWASTRESGVPDRFTGSGSGTDFTLTISSVQAEDVAVYYCKQSYHLFTFGSGTKLEIKR
notes: HC vector V1 (wild-type hIgG1 constant), LC vector V2 (kappa constant); also called VD259H; VD259L
The molecule B7 registered an EC50 in the assay with PlGF (Placental GF) [5] of 1.3 nM.

B8: DVD258 (PLGF (seq. 1) and DLL-4 (seq. 1) DVD-Ig) (bispecific antibody, IgG1)
VH: QVQLQQSGAELVKPGASVKISCKASGYTFTDYYINWVKLAPGQGLEWIGWIYPGSGNTKYNEKFKGKATLTIDTSSSTAYMQLSSLTSEDTAVYFCVRDSPFFDYWGQGTLLTVSSASTKGPEVQLVESGGGLVQPGGSLRLSCAASGFTFTDNWISWVRQAPGKGLEWVGYISPNSGFTYYADSVKGRFTISADTSKNTAYLQMNSLRAEDTAVYYCARDNFGGYFDYWGQGTLVTVSS
VL: DIVLTQSPDSLAVSLGERVTMNCKSSQSLLNSGMRKSFLAWYQQKPGQSPKLLIYWASTRESGVPDRFTGSGSGTDFTLTISSVQAEDVAVYYCKQSYHLFTFGSGTKLEIKRTVAAPDIQMTQSPSSLSASVGDRVTITCRASQDVSTAVAWYQQKPGKAPKLLIYSASFLYSGVPSRFSGSGSGTDFTLTISSLQPEDFATTYYCQQSYTGTVTFGQGTKVEIKR
notes: Outer AB047, inner AB015; HC vector V1 (wild-type hIgG1 constant), LC vector V2 (kappa constant); also called VD258H; VD258L
On to B8, for which the EC50 was 2.3 nM with DLL4 (DLL4 ECD/His tag) [2] and 0.08 nM in the assay with PlGF (Placental GF) [3].

B9: DVD044 (DLL4 (seq. 1) and VEGF (seq. 1) DVD-Ig) (bispecific antibody, IgG1)
VH: EVQLVESGGGLVQPGGSLRLSCAASGFTFTDNWISWVRQAPGKGLEWVGYISPNSGFTYYADSVKGRFTISADTSKNTAYLQMNSLRAEDTAVYYCARDNFGGYFDYWGQGTLVTVSSASTKGPEVQLVESGGGLVQPGGSLRLSCAASGYTFTNYGMNWVRQAPGKGLEWVGWINTYTGEPTYAADFKRRFTFSLDTSKSTAYLQMNSLRAEDTAVYYCAKYPHYYGSSHWYFDVWGQGTLVTVSS
VL: DIQMTQSPSSLSASVGDRVTITCRASQDVSTAVAWYQQKPGKAPKLLIYSASFLYSGVPSRFSGSGSGTDFTLTISSLQPEDFATTYYCQQSYTGTVTFGQGTKVEIKRTVAAPDIQMTQSPSSLSASVGDRVTITCSASQDISNYLNWYQQKPGKAPKVLIYFTSSLHSGVPSRFSGSGSGTDFTLTISSLQPEDFATYYCQQYSTVPWTFGQGTKVEIKR
notes: HC vector V1 (wild-type hIgG1 constant), LC vector V2 (kappa constant); also called DVD044H; DVD044L
With B9, the EC50 with DLL4 (DLL4 ECD/His tag) [6] was 0.53 nM.

B10: DVD047 (VEGF (seq. 1) and RON (seq. 1) DVD-Ig) (bispecific antibody, IgG1)
VH: EVQLVESGGGLVQPGGSLRLSCAASGYTFTNYGMNWVRQAPGKGLEWVGWINTYTGEPTYAADFKRRFTFSLDTSKSTAYLQMNSLRAEDTAVYYCAKYPHYYGSSHWYFDVWGQGTLVTVSSASTKGPEVQLVQSGGGLVKPGGSLRLSCAASGFTFSSYAMHWVRQAPGKGLEWVAVISYDGSNKYYADSVKGRFTISRDNSKNTLYLQMNSLRAEDTAVYYCARFSGWPNNYYYYGMDVWGQGTTVTVSS
VL: DIQMTQSPSSLSASVGDRVTITCSASQDISNYLNWYQQKPGKAPKVLIYFTSSLHSGVPSRFSGSGSGTDFTLTISSLQPEDFATYYCQQYSTVPWTFGQGTKVEIKRTVAAPDVVMTQSPLSLPVTPGEPASISCRSSQSLLHSNGFNYVDWYLQKPGQSPHLLIYFGSYRASGVPDRFSGSGSGTDFTLKISRVEAEDVGVYYCMQALQTPPWTFGQGTKVEIRR
notes: HC vector V1 (wild-type hIgG1 constant), LC vector V2 (kappa constant); also called DVD047H; DVD047L
As to B10, the EC50 in assay [4] amounted to 94.8 nM.

B11: DVD257 (DLL-4 (seq. 1) and PLGF (seq. 1) DVD-Ig) (bispecific antibody, IgG1)
VH: EVQLVESGGGLVQPGGSLRLSCAASGFTFTDNWISWVRQAPGKGLEWVGYISPNSGFTYYADSVKGRFTISADTSKNTAYLQMNSLRAEDTAVYYCARDNFGGYFDYWGQGTLVTVSSASTKGPQVQLQQSGAELVKPGASVKISCKASGYTFTDYYINWVKLAPGQGLEWIGWIYPGSGNTKYNEKFKGKATLTIDTSSSTAYMQLSSLTSEDTAVYFCVRDSPFFDYWGQGTLLTVSS
VL: DIQMTQSPSSLSASVGDRVTITCRASQDVSTAVAWYQQKPGKAPKLLIYSASFLYSGVPSRFSGSGSGTDFTLTISSLQPEDFATTYYCQQSYTGTVTFGQGTKVEIKRTVAAPDIVLTQSPDSLAVSLGERVTMNCKSSQSLLNSGMRKSFLAWYQQKPGQSPKLLIYWASTRESGVPDRFTGSGSGTDFTLTISSVQAEDVAVYYCKQSYHLFTFGSGTKLEIKR
notes: Outer AB015, inner AB047; HC vector V1 (wild-type hIgG1 constant), LC vector V2 (kappa constant); also called 7H; VD257L
As for B11, the results for the EC50 in the assay with PlGF (Placental GF) [5] and in the assay with DLL4 (DLL4 ECD/His tag) [6] were 2 nM and 0.28 nM, respectively.
